Assay results published in patent publication US20190300611A1 (ARCH ONCOLOGY, published 2019).

B1: VLX4 IgG4 S228P (xi) (antibody)
heavy: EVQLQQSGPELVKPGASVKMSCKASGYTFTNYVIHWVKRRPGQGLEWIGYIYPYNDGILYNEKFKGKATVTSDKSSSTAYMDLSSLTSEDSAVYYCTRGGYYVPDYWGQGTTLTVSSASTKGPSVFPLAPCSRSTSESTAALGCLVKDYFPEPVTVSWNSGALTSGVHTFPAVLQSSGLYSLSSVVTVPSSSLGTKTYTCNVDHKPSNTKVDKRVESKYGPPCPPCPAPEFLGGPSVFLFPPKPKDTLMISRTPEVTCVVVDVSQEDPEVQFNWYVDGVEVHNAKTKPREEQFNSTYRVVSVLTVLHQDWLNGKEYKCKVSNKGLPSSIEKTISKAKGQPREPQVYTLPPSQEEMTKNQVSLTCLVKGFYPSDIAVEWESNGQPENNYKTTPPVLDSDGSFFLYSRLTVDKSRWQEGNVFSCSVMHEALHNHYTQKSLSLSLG
light: DVLMTQTPLSLPVNLGDQASISCRSRQSIVHTNGNTYLGWFLQKPGQSPKLLIYKVSNRFSGVPDRFSGSGSGTDFTLTISRVEAEDLGVYYCFQGSHVPYTFGGGTKLEIKRTVAAPSVFIFPPSDEQLKSGTASVVCLLNNFYPREAKVQWKVDNALQSGNSQESVTEQDSKDSTYSLSSTLTLSKADYEKHKVYACEVTHQGLSSPVTKSFNRGEC
B2: VLX4 IgG2 (xi) (antibody)
heavy: EVQLQQSGPELVKPGASVKMSCKASGYTFTNYVIHWVKRRPGQGLEWIGYIYPYNDGILYNEKFKGKATVTSDKSSSTAYMDLSSLTSEDSAVYYCTRGGYYVPDYWGQGTTLTVSSASTKGPSVFPLAPCSRSTSESTAALGCLVKDYFPEPVTVSWNSGALTSGVHTFPAVLQSSGLYSLSSVVTVPSSNFGTQTYTCNVDHKPSNTKVDKTVERKCCVECPPCPAPPVAGPSVFLFPPKPKDTLMISRTPEVTCVVVDVSHEDPEVQFNWYVDGVEVHNAKTKPREEQFNSTFRVVSVLTVVHQDWLNGKEYKCKVSNKGLPAPIEKTISKTKGQPREPQVYTLPPSREEMTKNQVSLTCLVKGFYPSDIAVEWESNGQPENNYKTTPPMLDSDGSFFLYSKLTVDKSRWQQGNVFSCSVMHEALHNHYTQKSLSLSPGK
light: B1 light
B3: VLX4 IgG4 PE(xi) (antibody)
heavy: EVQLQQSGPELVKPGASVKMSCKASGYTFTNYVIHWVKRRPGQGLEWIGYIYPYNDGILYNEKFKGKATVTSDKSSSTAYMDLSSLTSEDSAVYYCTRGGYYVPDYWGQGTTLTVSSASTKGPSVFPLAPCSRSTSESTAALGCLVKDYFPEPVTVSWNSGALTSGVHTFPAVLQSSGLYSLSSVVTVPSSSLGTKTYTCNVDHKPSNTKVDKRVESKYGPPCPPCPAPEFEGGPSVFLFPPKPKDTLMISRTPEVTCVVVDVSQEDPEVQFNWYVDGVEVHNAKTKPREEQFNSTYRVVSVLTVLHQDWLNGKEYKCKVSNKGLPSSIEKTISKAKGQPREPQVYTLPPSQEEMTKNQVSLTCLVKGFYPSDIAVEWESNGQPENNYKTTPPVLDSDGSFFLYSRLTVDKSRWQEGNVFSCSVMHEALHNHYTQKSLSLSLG
light: B1 light
notes: Murine-human chimera; also called VLX4 IgG4PE chimeric mAb

What was measured:
[1] = biological target: T1, human CD47 (human, UniProt Q08722 19-292); test: cell-based ELISA on OV10 hCD47 cells
T1 construct: On the surface of OV10 cells transfected with human CD47, fresh human RBCs, Jurkat T cells or human breast cancer tissue; also called hCD47; integrin-associated protein (IAP)
Description: Binding activities of VLX4, VLX8, and VLX9 chimeric (murine-human) and humanized mAbs were determined using a cell-based ELISA assay with human OV10 hCD47 cells expressing cell surface human CD47. OV10 hCD47 cells were grown in IMDM medium containing 10% heat inactivated fetal bovine serum (BioWest; S01520). One day before assay, 3×10⁴ cells were plated in 96 well cell bind plates (Corning #3300, VWR #66025-626) and were 95-100% confluent at the time of assay. Cells were washed and various concentrations of purified antibodies added in IMDM 37° C. for 1 hr in […]. Cells were then washed with media and incubated for an additional hour at 37° C. with HRP labeled secondary anti-human antibody (Promega) diluted 1/2500 in media. Cells were washed three times with PBS, and the peroxidase substrate 3,3′, 5,5′-tetramethylbenzidine is added (Sigma; Catalog #T4444). Reactions were terminated by the addition of HCl to 0.7N, and absorbance at 450 nm is determined using a Tecan model Infinite M200 plate reader. The apparent binding affinities of these clones to human OV10 hCD47 cells was determined by non-linear fit (Prism GraphPad software).

[2] = biological target: T1, human CD47; test: flow cytometry on human RBCs
Description: Binding activities of chimeric (murine-human) and humanized VLX4, VLX8, and VLX9 mAbs to human CD47 on hRBCs were also determined using flow cytometry. hRBCs were incubated for 60 min on at 37° C. with various concentrations of the chimeric or humanized antibodies in a solution of phosphate buffered saline, pH 7.2, 2.5 mM EDTA (PBS+E). Cells were then washed with cold PBS+E, and incubated for an additional hour on ice with FITC labeled donkey anti-human antibody (Jackson Immuno Research Labs, West Grove, Pa.; Catalogue #709-096-149) in PBS+E. Cells were washed with PBS+E, antibody binding analyzed using a C6 Accuri Flow Cytometer (Becton Dickinson) and apparent binding affinities determined by non-linear fit (Prism GraphPad software) of the median fluorescence intensities at the various antibody concentrations.

T1 sequence (Q08722 other isoform, or with tags, fused parts or gaps limits assumed): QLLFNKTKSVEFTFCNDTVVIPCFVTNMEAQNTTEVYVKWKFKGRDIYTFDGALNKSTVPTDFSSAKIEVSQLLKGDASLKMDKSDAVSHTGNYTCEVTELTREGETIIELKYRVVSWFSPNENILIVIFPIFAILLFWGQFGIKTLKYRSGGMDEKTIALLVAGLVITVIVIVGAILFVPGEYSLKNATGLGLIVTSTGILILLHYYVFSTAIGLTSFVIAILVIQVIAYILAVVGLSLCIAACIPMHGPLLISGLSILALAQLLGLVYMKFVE

| Binder | Kd [1] | Kd [2] |
| --- | --- | --- |
| B1 | 0.214 nM | 0.099 nM |
| B2 | 0.431 nM | 0.184 nM |
| B3 | 0.225 nM | 0.303 nM |
